In publication PMC9865026 (Pathogens, 2022):

What was measured:
Assay in all cases: ELISA
Settings in all cases: both partners purified
[1] = target: A/Aichi/2/68 (H3N2A) recombinant hemagglutinin (HA) (Influenza A virus A/Aichi/2/1968 …, UniProt T2HNI1)
[2] = target: A/Perth/16/2009 (H3N2P) recombinant hemagglutinin (HA) (Influenza A virus A/Perth/16/2009 (H3N2), UniProt C6KNH7, strain)
[3] = target: A/New Caledonia/20/1999 (NC H1N1) recombinant hemagglutinin (HA) (Influenza A virus A/New …, UniProt Q6WG00, strain)
[4] = target: A/California/07/2009 (pH1N1) recombinant hemagglutinin (HA) (Influenza A virus A/California/07/2009 …, UniProt C3W5X2, strain)

Measured: binding result

B1: F045-092 human IgG4 (antibody, V domains shown)
VH: EVQLVESGAEVKKPGSSVKVSCRASGTFYKYAINWVRQAPGQGLEWMGGIIPFFGTTNYAQKFQGRLTITADGSTNTAYMQLDSLRSEDTAVYYCAGPSITESHYCLDCAAKDYYYGLDVWGQGTTVTVSS
VL: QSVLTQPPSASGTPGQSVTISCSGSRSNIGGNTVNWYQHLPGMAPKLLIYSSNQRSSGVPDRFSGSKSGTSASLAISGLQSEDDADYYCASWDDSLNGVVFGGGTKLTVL
notes: also called F045-092 IgG4; source: HEK-293, transfected (pTT5), purified from cell culture supernatant (MabSelect); copies: 2 + 2
binds: [1] | [2]

B2: F045-092 human IgG1 with a mouse IgG1 hinge (antibody, V domains shown)
VH: B1 VH
VL: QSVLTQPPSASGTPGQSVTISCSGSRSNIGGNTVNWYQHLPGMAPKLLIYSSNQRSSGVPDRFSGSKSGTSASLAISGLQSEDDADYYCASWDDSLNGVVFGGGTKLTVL
notes: also called human IgG1 with a mouse hinge; copies: 2 + 2
binds: [1] | [2]

B3: FI6 human IgG1 with a mouse IgG1 hinge (antibody, V domains shown)
VH: QVQLVESGGGVVQPGRSLRLSCAASGFTFSTYAMHWVRQAPGKGLEWVAVISYDANYKYYADSVKGRFTISRDNSKNTLYLQMNSLRAEDTAVYYCAKDSQLRSLLYFEWLSQGYFDYWGQGTLVTVSS
VL: not shown
notes: also called VR-analogous human IgG1 with a mouse IgG1 hinge (FI6); copies: 2 + 2
binds: all assays above

B4: FI6 mouse IgG1 (antibody, V domains shown)
VH: B3 VH
VL: not shown
notes: also called VR-analogous mouse IgG1 (FI6); source: HEK-293, transfected (pTT5), purified from cell culture supernatant (Protein G); copies: 2 + 2
binds: all assays above

B5: FI6 human IgG4 (antibody, V domains shown)
VH: B3 VH
VL: not shown
notes: also called VR-analogous human IgG4 (FI6); source: HEK-293, transfected (pTT5), purified from cell culture supernatant (MabSelect); copies: 2 + 2
binds: all assays above

B6: FI6 mouse IgG2a (antibody, V domains shown)
VH: B3 VH
VL: not shown
notes: also called VR-analogous mouse IgG2a (FI6); source: HEK-293, transfected (pTT5), purified from cell culture supernatant (Protein G); copies: 2 + 2
binds: all assays above

B7: CR6261 human IgG1 possessing a mouse IgG1 hinge (antibody, V domains shown)
VH: EVQLVESGAEVKKPGSSVKVSCKASGGPFRSYAISWVRQAPGQGPEWMGGIIPIFGTTKYAPKFQGRVTITADDFAGTVYMELSSLRSEDTAMYYCAKHMGYQVRETMDVWGKGTTVTVSS
VL: QSVLTQPPSVSAAPGQKVTISCSGSSSNIGNDYVSWYQQLPGTAPKLLIYDNNKRPSGIPDRFSGSKSGTSATLGITGLQTGDEANYYCATWDRRPTAYVVFGGGTKLTVL
notes: also called human IgG1 with a mouse IgG1 hinge; copies: 2 + 2
binds: [3] | [4]

B8: CR6261 human IgG4 (antibody, V domains shown)
VH: B7 VH
VL: B7 VL
notes: also called CR6261 IgG4; source: HEK-293, transfected (pTT5), purified from cell culture supernatant (MabSelect); copies: 2 + 2
binds: [3] | [4]
